Reference: publication PMC7773337 (2020)

Biological target: reconstituted mononucleosomes (histone octamer on Widom '601' DNA)

B1: zz-LAP1B(98-136)-His6 wild-type (domain or fragment)
chain: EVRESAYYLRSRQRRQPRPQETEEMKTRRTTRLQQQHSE
For B1, the Kd was 0.43 µM.

B2: zz-LAP1B(98-136)-2E His6 (S108E, T124E) (domain or fragment)
chain: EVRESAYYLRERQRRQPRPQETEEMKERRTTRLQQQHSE
With B2 the Kd was 9.13 µM.
